Experiments:
σJ = molecular target: T1, σJ (Mycobacterium tuberculosis, UniProt L0TCG5 1-312); experiment: EMSA
T1 sequence: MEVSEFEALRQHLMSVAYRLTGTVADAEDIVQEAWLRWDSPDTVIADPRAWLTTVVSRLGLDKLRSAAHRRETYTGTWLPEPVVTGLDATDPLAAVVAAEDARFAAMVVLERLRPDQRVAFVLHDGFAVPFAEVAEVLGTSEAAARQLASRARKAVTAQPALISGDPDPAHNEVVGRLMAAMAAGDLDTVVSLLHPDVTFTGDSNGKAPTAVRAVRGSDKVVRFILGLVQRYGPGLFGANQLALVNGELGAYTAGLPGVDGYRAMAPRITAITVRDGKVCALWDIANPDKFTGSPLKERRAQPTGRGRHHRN

σJSnoaL_2 = molecular target: T2, σJSnoaL_2 (Mycobacterium tuberculosis, UniProt L0TCG5 162-312); experiment: EMSA
T2 sequence: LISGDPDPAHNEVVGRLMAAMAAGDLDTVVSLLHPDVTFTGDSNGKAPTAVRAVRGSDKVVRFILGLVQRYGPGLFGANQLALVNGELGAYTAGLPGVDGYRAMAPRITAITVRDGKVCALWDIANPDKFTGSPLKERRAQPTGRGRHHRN

B1: wt-sigIp (dsDNA)
DNA 1: GCTGTCACATTCGGCGGGGCTGTCTCGTCCTTGA
DNA 2: TCAAGGACGAGACAGCCCCGCCGAATGTGACAGC
B1 was tested, and the Kd (σJ) was 4.96 ± 0.94 µM and the binding result (σJSnoaL_2) was “no binding”.

Source: paper PMC5766207
